Experimental data: patent publication US20150258192A1, “COMPOSITIONS AND METHODS FOR PREVENTING OR TREATING CHRONIC LUNG ALLOGRAFT DYSFUNCTION (CLAD) AND IDIOPATHIC PULMONARY FIBROSIS (IPF)” (priority 2014, published 2015)
No end group written: not given here.

How the values were obtained:
Assay in all cases: Kinase Profiling Assay
Assay type in all cases: biochemical
Settings in all cases: peptide 100 μM
EphB1(h) = biological target: T1, EphB1(h) (Homo sapiens, UniProt P54762)
T1 sequence (P54762 18-984): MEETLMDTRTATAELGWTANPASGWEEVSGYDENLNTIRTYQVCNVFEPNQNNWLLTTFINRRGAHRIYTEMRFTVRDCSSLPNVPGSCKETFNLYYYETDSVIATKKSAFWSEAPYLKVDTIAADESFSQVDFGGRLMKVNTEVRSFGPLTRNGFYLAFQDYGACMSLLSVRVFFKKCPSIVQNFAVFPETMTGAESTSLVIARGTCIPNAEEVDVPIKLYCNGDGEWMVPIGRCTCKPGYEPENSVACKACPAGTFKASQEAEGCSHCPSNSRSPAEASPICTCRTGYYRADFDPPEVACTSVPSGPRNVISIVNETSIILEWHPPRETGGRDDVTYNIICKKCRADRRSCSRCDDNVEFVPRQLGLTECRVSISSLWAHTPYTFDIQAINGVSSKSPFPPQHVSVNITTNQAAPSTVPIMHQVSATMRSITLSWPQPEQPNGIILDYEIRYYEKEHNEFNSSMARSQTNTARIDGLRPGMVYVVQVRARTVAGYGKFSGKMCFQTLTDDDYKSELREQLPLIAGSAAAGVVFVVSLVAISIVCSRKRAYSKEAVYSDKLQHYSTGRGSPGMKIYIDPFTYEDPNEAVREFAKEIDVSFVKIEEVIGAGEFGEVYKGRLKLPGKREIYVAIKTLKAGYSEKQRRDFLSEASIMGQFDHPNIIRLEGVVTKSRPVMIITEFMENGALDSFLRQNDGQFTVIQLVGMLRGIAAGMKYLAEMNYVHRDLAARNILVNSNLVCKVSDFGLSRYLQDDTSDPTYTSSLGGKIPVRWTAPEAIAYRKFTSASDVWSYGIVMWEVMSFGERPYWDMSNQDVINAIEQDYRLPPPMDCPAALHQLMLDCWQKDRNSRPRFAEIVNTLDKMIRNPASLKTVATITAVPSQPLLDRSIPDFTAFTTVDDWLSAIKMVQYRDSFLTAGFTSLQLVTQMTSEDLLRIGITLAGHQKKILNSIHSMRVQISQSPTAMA
Method in brief: (§1)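 Kinase inhibition by MK2 inhibitory peptides was profiled radiometrically, with substrate phosphorylation from labeled ATP read by scintillation after capture on a charged filter. Values are relative to 100% activity and measured in duplicate.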

BrSK1(h) = biological target: T2, BrSK1(h) (Homo sapiens, UniProt Q8TDC3)
T2 sequence (Q8TDC3 1-778): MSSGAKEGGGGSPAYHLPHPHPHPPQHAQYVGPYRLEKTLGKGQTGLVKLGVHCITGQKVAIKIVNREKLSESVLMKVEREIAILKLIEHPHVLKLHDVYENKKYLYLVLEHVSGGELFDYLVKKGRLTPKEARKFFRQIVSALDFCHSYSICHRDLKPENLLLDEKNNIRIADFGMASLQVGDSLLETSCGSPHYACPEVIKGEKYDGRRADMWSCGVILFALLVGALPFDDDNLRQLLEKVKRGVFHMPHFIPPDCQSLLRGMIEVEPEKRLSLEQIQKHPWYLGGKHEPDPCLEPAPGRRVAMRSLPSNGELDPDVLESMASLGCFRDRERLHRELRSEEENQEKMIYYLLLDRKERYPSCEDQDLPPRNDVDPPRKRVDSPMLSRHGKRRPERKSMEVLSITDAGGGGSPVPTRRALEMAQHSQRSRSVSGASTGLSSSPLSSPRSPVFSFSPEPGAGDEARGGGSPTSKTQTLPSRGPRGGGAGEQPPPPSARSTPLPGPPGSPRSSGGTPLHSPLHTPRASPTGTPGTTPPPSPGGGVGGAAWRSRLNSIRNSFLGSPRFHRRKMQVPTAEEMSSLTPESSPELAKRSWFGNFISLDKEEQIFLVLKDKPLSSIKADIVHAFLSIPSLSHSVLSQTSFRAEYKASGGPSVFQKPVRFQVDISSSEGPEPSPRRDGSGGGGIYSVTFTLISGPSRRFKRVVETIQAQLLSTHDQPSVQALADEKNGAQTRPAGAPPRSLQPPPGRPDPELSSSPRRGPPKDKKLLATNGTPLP
Method in brief: as §1

Mer(h) = biological target: T3, Mer(h) (Homo sapiens, UniProt Q12866)
T3 construct: purchased Millipore
T3 sequence (Q12866 21-999): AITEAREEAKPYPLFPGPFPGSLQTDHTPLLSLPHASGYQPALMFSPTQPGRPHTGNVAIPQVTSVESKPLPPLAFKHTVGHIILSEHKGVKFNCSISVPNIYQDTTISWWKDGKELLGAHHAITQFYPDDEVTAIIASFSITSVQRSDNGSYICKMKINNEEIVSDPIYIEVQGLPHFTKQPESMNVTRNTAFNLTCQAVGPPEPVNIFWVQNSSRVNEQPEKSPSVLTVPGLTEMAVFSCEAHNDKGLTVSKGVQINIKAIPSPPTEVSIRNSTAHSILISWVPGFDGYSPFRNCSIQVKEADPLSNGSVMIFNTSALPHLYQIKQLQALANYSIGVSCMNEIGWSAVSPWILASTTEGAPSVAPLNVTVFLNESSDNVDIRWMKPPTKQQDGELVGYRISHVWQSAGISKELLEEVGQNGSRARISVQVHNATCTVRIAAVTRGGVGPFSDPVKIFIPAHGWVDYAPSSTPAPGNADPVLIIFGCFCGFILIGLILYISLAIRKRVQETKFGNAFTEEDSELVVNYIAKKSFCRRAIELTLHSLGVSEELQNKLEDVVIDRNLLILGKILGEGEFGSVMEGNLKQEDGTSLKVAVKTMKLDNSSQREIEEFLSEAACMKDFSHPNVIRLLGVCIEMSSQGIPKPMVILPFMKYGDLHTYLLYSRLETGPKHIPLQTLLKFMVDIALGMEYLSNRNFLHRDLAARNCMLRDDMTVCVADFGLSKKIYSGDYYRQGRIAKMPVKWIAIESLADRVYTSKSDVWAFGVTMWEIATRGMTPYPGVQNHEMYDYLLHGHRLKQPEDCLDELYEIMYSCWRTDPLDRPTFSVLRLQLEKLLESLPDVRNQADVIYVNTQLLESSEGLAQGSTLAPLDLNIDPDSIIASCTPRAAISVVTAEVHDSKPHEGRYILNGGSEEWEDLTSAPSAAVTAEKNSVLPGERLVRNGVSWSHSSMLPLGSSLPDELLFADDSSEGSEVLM
Method in brief: as §1

Fyn(h) = Fyn(h) (Homo sapiens, UniProt P06241)
Method in brief: as §1

Sequence of Fyn(h) (P06241 whole entry): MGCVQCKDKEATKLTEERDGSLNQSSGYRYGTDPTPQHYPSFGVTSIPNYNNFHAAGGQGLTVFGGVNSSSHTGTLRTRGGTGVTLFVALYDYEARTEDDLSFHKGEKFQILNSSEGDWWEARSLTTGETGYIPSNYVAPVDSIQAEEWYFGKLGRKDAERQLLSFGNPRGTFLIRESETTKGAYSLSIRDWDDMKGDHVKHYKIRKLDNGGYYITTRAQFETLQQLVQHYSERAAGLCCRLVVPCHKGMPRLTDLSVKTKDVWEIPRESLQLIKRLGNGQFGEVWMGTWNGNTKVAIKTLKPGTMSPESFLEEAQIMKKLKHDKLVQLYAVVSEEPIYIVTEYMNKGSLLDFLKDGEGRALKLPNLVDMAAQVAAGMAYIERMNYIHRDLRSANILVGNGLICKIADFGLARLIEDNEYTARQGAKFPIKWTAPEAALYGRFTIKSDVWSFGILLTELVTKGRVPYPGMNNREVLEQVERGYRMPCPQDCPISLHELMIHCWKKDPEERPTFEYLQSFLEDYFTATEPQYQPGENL

Row | Sequence | % activity (EphB1(h)) [%] | % activity (BrSK1(h)) [%] | % activity (Mer(h)) [%] | % activity (Fyn(h)) [%]
1 | FAKLAARLYRKALARQLGVAA [MMI-0300] | 44 | 67 | 52 | 74
2 | HRRIKAWLKKIKALARQLGVAA (Mammal) [MMI-0500] | 37 | 72 | 17 | 83
3 | KAFAKLAARLYRKALARQLGVAA [MMI-0400] | 58 | 76 | 50 | 54
4 | YARAAARQARAKALARQLGVAA [MMI-0100] | 99 | 100 | 47 | –
5 | YARAAARQARAKALNRQLGVA (Mammal) [MMI-0200] | 95 | 93 | 90 | 75
